Reference: the supplement of paper PMC7125110
± gives the standard error. For some of these results: Variants at the floor of the assay were thinned out.

B1: glmS ribozyme (parent)
chain: AUAAAAGCGCCAGAACUACAGAAAUGUAGUUGACGAGGAGGAGGUUUAUCGAAUUUUCGGCGGAUGCCUCCAAA

Assays:
Conditions in all cases: with glucosamine-6-phosphate
glucosamine-6-phosphate [1] = variants of: B1; assay: self-cleavage kobs at 40 uM GlcN6P; higher = faster cleavage; RNA array
Method in brief: (§1)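 In situ transcription by E. coli RNA polymerase produced barcoded ribozyme variants on sequenced MiSeq chips, and a hybridised Cy3 probe tracked them at 37 °C. Glucosamine-6-phosphate was flowed in at 40 μM to 10 mM in HEPES/KCl/Mg(OAc)2 buffer. kcat and KM were taken from weighted Michaelis–Menten fits of kobs values from exponential decay fits.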

glucosamine-6-phosphate [2] = variants of: B1; assay: self-cleavage kobs at 10000 uM GlcN6P; higher = faster cleavage; RNA array
Method in brief: as §1

glucosamine-6-phosphate [3] = variants of: B1; assay: self-cleavage kobs at 160 uM GlcN6P; higher = faster cleavage; RNA array
Method in brief: as §1

glucosamine-6-phosphate [4] = variants of: B1; assay: self-cleavage kobs at 640 uM GlcN6P; higher = faster cleavage; RNA array
Method in brief: as §1

glucosamine-6-phosphate [5] = variants of: B1; assay: self-cleavage kobs at 2500 uM GlcN6P; higher = faster cleavage; RNA array
Method in brief: as §1

glucosamine-6-phosphate [6] = variants of: B1; assay: KM; higher = weaker cofactor use; RNA array
Method in brief: as §1

| Variant | self-cleavage kobs at 40 uM GlcN6P (glucosamine-6-phosphate [1]) | self-cleavage kobs at 10000 uM GlcN6P (glucosamine-6-phosphate [2]) | self-cleavage kobs at 160 uM GlcN6P (glucosamine-6-phosphate [3]) | self-cleavage kobs at 640 uM GlcN6P (glucosamine-6-phosphate [4]) | self-cleavage kobs at 2500 uM GlcN6P (glucosamine-6-phosphate [5]) | KM (glucosamine-6-phosphate [6]) |
| --- | --- | --- | --- | --- | --- | --- |
| C8G U31C G35C | < 1e-05 s⁻¹ | < 1e-05 s⁻¹ |  |  |  |  |
| G7C G37U U47C G59U G66U C70U | < 1e-05 s⁻¹ | < 1e-05 s⁻¹ | < 1e-05 s⁻¹ |  |  |  |
| C8U U54A | < 1e-05 s⁻¹ | < 1e-05 s⁻¹ | < 1e-05 s⁻¹ | < 1e-05 s⁻¹ | < 1e-05 s⁻¹ |  |
| C8G A36U G60C | < 1e-05 s⁻¹ | < 1e-05 s⁻¹ |  |  |  |  |
| A6U G9U | < 1e-05 s⁻¹ |  | < 1e-05 s⁻¹ | < 1e-05 s⁻¹ | < 1e-05 s⁻¹ |  |
| C8G U30C | < 1e-05 s⁻¹ | < 1e-05 s⁻¹ |  |  | < 1e-05 s⁻¹ |  |
| C8U C16U U46A G63A | < 1e-05 s⁻¹ | < 1e-05 s⁻¹ |  |  |  |  |
| C8G U46A C70G | < 1e-05 s⁻¹ |  |  |  |  |  |
| A6C G29U G32A U57A | < 1e-05 s⁻¹ | < 1e-05 s⁻¹ |  | < 1e-05 s⁻¹ |  |  |
| A6G G38U U54C | < 1e-05 s⁻¹ |  |  | < 1e-05 s⁻¹ | < 1e-05 s⁻¹ |  |
| C8A G29A G51U | < 1e-05 s⁻¹ | < 1e-05 s⁻¹ |  |  |  |  |
| C8U G41A | < 1e-05 s⁻¹ | < 1e-05 s⁻¹ | < 1e-05 s⁻¹ | < 1e-05 s⁻¹ | < 1e-05 s⁻¹ |  |
| G7U C8U C67U | < 1e-05 s⁻¹ |  |  |  |  |  |
| C8U A48C | < 1e-05 s⁻¹ | < 1e-05 s⁻¹ |  | < 1e-05 s⁻¹ |  |  |
| A6G G7C C16A G41U | < 1e-05 s⁻¹ |  |  |  |  |  |
| A6C C16G C71A | < 1e-05 s⁻¹ |  |  |  |  |  |
| A6C A36C | < 1e-05 s⁻¹ | < 1e-05 s⁻¹ | < 1e-05 s⁻¹ |  |  |  |
| U65C C68G |  |  |  |  |  | 418 ± 130 µM |
| G7C U31C | < 1e-05 s⁻¹ |  | < 1e-05 s⁻¹ |  |  |  |
| G7U G35U A39U | < 1e-05 s⁻¹ |  |  |  |  |  |
| C8G A15G | < 1e-05 s⁻¹ | < 1e-05 s⁻¹ | < 1e-05 s⁻¹ | < 1e-05 s⁻¹ | < 1e-05 s⁻¹ |  |
| A6C C61U | < 1e-05 s⁻¹ | < 1e-05 s⁻¹ | < 1e-05 s⁻¹ |  |  |  |
| G7A G38C | < 1e-05 s⁻¹ | < 1e-05 s⁻¹ | < 1e-05 s⁻¹ | < 1e-05 s⁻¹ | < 1e-05 s⁻¹ |  |
| C8G G63A | < 1e-05 s⁻¹ | < 1e-05 s⁻¹ | < 1e-05 s⁻¹ | < 1e-05 s⁻¹ | < 1e-05 s⁻¹ |  |
| C8G G63U | < 1e-05 s⁻¹ | < 1e-05 s⁻¹ |  |  |  |  |

| Variant | self-cleavage kobs at 40 uM GlcN6P (glucosamine-6-phosphate [1]) | self-cleavage kobs at 10000 uM GlcN6P (glucosamine-6-phosphate [2]) | self-cleavage kobs at 160 uM GlcN6P (glucosamine-6-phosphate [3]) | self-cleavage kobs at 640 uM GlcN6P (glucosamine-6-phosphate [4]) | self-cleavage kobs at 2500 uM GlcN6P (glucosamine-6-phosphate [5]) | KM (glucosamine-6-phosphate [6]) |
| --- | --- | --- | --- | --- | --- | --- |
| A6G G62C | < 1e-05 s⁻¹ | < 1e-05 s⁻¹ | < 1e-05 s⁻¹ | < 1e-05 s⁻¹ | < 1e-05 s⁻¹ |  |
| A6G G40U A48C G62A U65G | < 1e-05 s⁻¹ | < 1e-05 s⁻¹ |  |  |  |  |
| C8A U30A A48G | < 1e-05 s⁻¹ | < 1e-05 s⁻¹ |  |  |  |  |
| G7A A12C A42C U49A G60C | < 1e-05 s⁻¹ | < 1e-05 s⁻¹ |  |  |  |  |
| G7C U47C A64U | < 1e-05 s⁻¹ | < 1e-05 s⁻¹ |  |  |  |  |
| C8G A33U | < 1e-05 s⁻¹ | < 1e-05 s⁻¹ | < 1e-05 s⁻¹ | < 1e-05 s⁻¹ | < 1e-05 s⁻¹ |  |
| A6G U57C C70A C71U | < 1e-05 s⁻¹ |  | < 1e-05 s⁻¹ |  |  |  |
| A6C G7U A12U A15U | < 1e-05 s⁻¹ | < 1e-05 s⁻¹ |  |  |  |  |
| A6C G29C A53U | < 1e-05 s⁻¹ |  | < 1e-05 s⁻¹ |  |  |  |
| C8G G41U C71U | < 1e-05 s⁻¹ | < 1e-05 s⁻¹ |  |  |  |  |
| C8A U57A G63A | < 1e-05 s⁻¹ |  |  |  | < 1e-05 s⁻¹ |  |
| G44U U56C |  |  |  |  |  | 4890 ± 1500 µM |
| G7A U56C C67U C68U | < 1e-05 s⁻¹ |  | < 1e-05 s⁻¹ | < 1e-05 s⁻¹ |  |  |
| A6G G9C | < 1e-05 s⁻¹ | < 1e-05 s⁻¹ | < 1e-05 s⁻¹ |  |  |  |
| A6G C70U | < 1e-05 s⁻¹ |  | < 1e-05 s⁻¹ |  |  |  |
| C8A U69G | 8.97e-05 ± 2.7e-05 s⁻¹ | 0.000773 ± 0.00027 s⁻¹ |  | 0.000846 ± 0.00027 s⁻¹ | 0.000592 ± 0.00028 s⁻¹ |  |
| C8U C50A G51A U69G | 0.00046 ± 0.00016 s⁻¹ | 0.000709 ± 0.00014 s⁻¹ |  |  |  |  |
| A6C G40C | < 1e-05 s⁻¹ |  |  | < 1e-05 s⁻¹ | < 1e-05 s⁻¹ |  |
| A6U A39C | < 1e-05 s⁻¹ |  |  |  |  |  |
| A6G C16G C67G | < 1e-05 s⁻¹ |  |  |  |  |  |
| G7C G35U | < 1e-05 s⁻¹ |  | < 1e-05 s⁻¹ |  | < 1e-05 s⁻¹ |  |
| G7U A14G G32C A39U | < 1e-05 s⁻¹ |  |  |  |  |  |
| A6U G35U A39G C71A | < 1e-05 s⁻¹ | < 1e-05 s⁻¹ |  |  |  |  |
| C8G U46G | < 1e-05 s⁻¹ | < 1e-05 s⁻¹ | < 1e-05 s⁻¹ | < 1e-05 s⁻¹ | < 1e-05 s⁻¹ |  |
